Reference: patent US20240270839A1 (ELPISCIENCE SUZHOU BIOPHARMA, published 2024)
Each block holds one binder with its values, some of them ahead of it.

Columns and labels:
[1] = biological target: T1, human CLDN18.2 (hCLDN18.2), expressed on cells (human); assay: FACS, MFC cells over-expressing hCLDN18.2
T1 construct: the constructs in the cell lines are not described; also called Claudin18.2; HEK293-hCLDN18.2

[2] = biological target: T1, human CLDN18.2 (hCLDN18.2), expressed …; assay: FACS, SNU620 cells over-expressing hCLDN18.2

B1: hu22E12.H2L2 (antibody, V domains shown)
VH: QVQLVQSGAEVKKPGASVKVSCKASGYTFTNWVHWVRQAPGQGLEWMGEINPTNARSNYNEKFKKRVTMTRDRSTSTVYMELSSLRSEDTAVYFCAGIYYGNSFAHWGQGTLVTVSS
VL: DIVMTQSPDSLAVSLGERATINCKSSQSLLNAGNQKNYLTWYQQKPGQPPKLLIYWSSTRESGVPDRFSGSGSGTDFTLTISSLQAEDVAVYHCQNNYYYPLTFGGGTKLEIK
notes: humanized 22E12
EC50 [1]: 0.586 nM

B2: hu22E12.H3L3 (antibody, V domains shown)
VH: QVQLVQSGAEVVKPGASVKVSCKASGYTFTNWVHWVIQAPGQGLEWMGEINPTNARSNYNEKFKKRVTMTLDRSTSTVYMELSSLRSEDTAVYFCAGIYYGNSFAHWGQGTLVTVSS
VL: DIVMTQSPDSLAVSLGERVTLNCKSSQSLLNAGNQKNYLTWYQQKPGQPPKLLIYWSSTRESGVPDRFSGSGSGTDFTLTISSVQAEDVAVYHCQNNYYYPLTFGGGTKLEIK
notes: humanized 22E12
EC50 [1]: 1.19 nM

B3: hu22E12.H3L1 (antibody, V domains shown)
VH: QVQLVQSGAEVVKPGASVKVSCKASGYTFTNWVHWVIQAPGQGLEWMGEINPTNARSNYNEKFKKRVTMTLDRSTSTVYMELSSLRSEDTAVYFCAGIYYGNSFAHWGQGTLVTVSS
VL: DIVMTQSPDSLAVSLGERATINCKSSQSLLNAGNQKNYLTWYQQKPGQPPKLLIYWSSTRESGVPDRFSGSGSGTDFTLTISSLQAEDVAVYYCQNNYYYPLTFGGGTKLEIK
notes: humanized 22E12
EC50 [1]: 1.23 nM

B4: hu22E12.H4L1 (antibody, V domains shown)
VH: QVQLVQSGAEVVKPGASVKLSCKASGYTFTNWVHWVIQAPGQGLEWIGEINPTNARSNYNEKFKKRVTLTLDRSTSTVYMELSSLRSEDTAVYFCAGIYYGNSFAHWGQGTLVTVSS
VL: DIVMTQSPDSLAVSLGERATINCKSSQSLLNAGNQKNYLTWYQQKPGQPPKLLIYWSSTRESGVPDRFSGSGSGTDFTLTISSLQAEDVAVYYCQNNYYYPLTFGGGTKLEIK
notes: humanized 22E12
EC50 [1]: 1.16 nM

B5: hu22E12.H1L1 (antibody, V domains shown)
VH: QVQLVQSGAEVKKPGASVKVSCKASGYTFTNWVHWVRQAPGQGLEWMGEINPTNARSNYNEKFKKRVTMTRDTSTSTVYMELSSLRSEDTAVYYCARIYYGNSFAHWGQGTLVTVSS
VL: DIVMTQSPDSLAVSLGERATINCKSSQSLLNAGNQKNYLTWYQQKPGQPPKLLIYWSSTRESGVPDRFSGSGSGTDFTLTISSLQAEDVAVYYCQNNYYYPLTFGGGTKLEIK
notes: humanized 22E12
EC50 [1]: 1.31 nM

B6: hu22E12.H4L2 (antibody, V domains shown)
VH: QVQLVQSGAEVVKPGASVKLSCKASGYTFTNWVHWVIQAPGQGLEWIGEINPTNARSNYNEKFKKRVTLTLDRSTSTVYMELSSLRSEDTAVYFCAGIYYGNSFAHWGQGTLVTVSS
VL: DIVMTQSPDSLAVSLGERATINCKSSQSLLNAGNQKNYLTWYQQKPGQPPKLLIYWSSTRESGVPDRFSGSGSGTDFTLTISSLQAEDVAVYHCQNNYYYPLTFGGGTKLEIK
notes: humanized 22E12
EC50 [1]: 1.05 nM

B7: hu22E12.H2L3 (antibody, V domains shown)
VH: QVQLVQSGAEVKKPGASVKVSCKASGYTFTNWVHWVRQAPGQGLEWMGEINPTNARSNYNEKFKKRVTMTRDRSTSTVYMELSSLRSEDTAVYFCAGIYYGNSFAHWGQGTLVTVSS
VL: DIVMTQSPDSLAVSLGERVTLNCKSSQSLLNAGNQKNYLTWYQQKPGQPPKLLIYWSSTRESGVPDRFSGSGSGTDFTLTISSVQAEDVAVYHCQNNYYYPLTFGGGTKLEIK
notes: humanized 22E12
EC50 [1]: 0.642 nM

B8: hu22E12.H2L1 (antibody, V domains shown)
VH: QVQLVQSGAEVKKPGASVKVSCKASGYTFTNWVHWVRQAPGQGLEWMGEINPTNARSNYNEKFKKRVTMTRDRSTSTVYMELSSLRSEDTAVYFCAGIYYGNSFAHWGQGTLVTVSS
VL: DIVMTQSPDSLAVSLGERATINCKSSQSLLNAGNQKNYLTWYQQKPGQPPKLLIYWSSTRESGVPDRFSGSGSGTDFTLTISSLQAEDVAVYYCQNNYYYPLTFGGGTKLEIK
notes: humanized 22E12
EC50 [1]: 0.656 nM

B9: hu22E12.H4L3 (antibody, V domains shown)
VH: QVQLVQSGAEVVKPGASVKLSCKASGYTFTNWVHWVIQAPGQGLEWIGEINPTNARSNYNEKFKKRVTLTLDRSTSTVYMELSSLRSEDTAVYFCAGIYYGNSFAHWGQGTLVTVSS
VL: DIVMTQSPDSLAVSLGERVTLNCKSSQSLLNAGNQKNYLTWYQQKPGQPPKLLIYWSSTRESGVPDRFSGSGSGTDFTLTISSVQAEDVAVYHCQNNYYYPLTFGGGTKLEIK
notes: humanized 22E12
EC50 [1]: 2 nM

B10: hu22E12.H3L2 (antibody, V domains shown)
VH: QVQLVQSGAEVVKPGASVKVSCKASGYTFTNWVHWVIQAPGQGLEWMGEINPTNARSNYNEKFKKRVTMTLDRSTSTVYMELSSLRSEDTAVYFCAGIYYGNSFAHWGQGTLVTVSS
VL: DIVMTQSPDSLAVSLGERATINCKSSQSLLNAGNQKNYLTWYQQKPGQPPKLLIYWSSTRESGVPDRFSGSGSGTDFTLTISSLQAEDVAVYHCQNNYYYPLTFGGGTKLEIK
notes: humanized 22E12
EC50 [1]: 1.25 nM

B11: hu22E12.H1L3 (antibody, V domains shown)
VH: QVQLVQSGAEVKKPGASVKVSCKASGYTFTNWVHWVRQAPGQGLEWMGEINPTNARSNYNEKFKKRVTMTRDTSTSTVYMELSSLRSEDTAVYYCARIYYGNSFAHWGQGTLVTVSS
VL: DIVMTQSPDSLAVSLGERVTLNCKSSQSLLNAGNQKNYLTWYQQKPGQPPKLLIYWSSTRESGVPDRFSGSGSGTDFTLTISSVQAEDVAVYHCQNNYYYPLTFGGGTKLEIK
notes: humanized 22E12
EC50 [1]: 1.08 nM

B12: hu35B4.H2L2 (antibody, V domains shown)
VH: EVQLLESGGGLVQPGGSLRLSCAASGFTLSSYALSWVRQAPGKGLEWVSYISNLGGSTFYPDTVKGRFTISRDNSKNTLYLQMNSLRAEDTAVYYCATHLYNYDAFASWGQGTLVTVSS
VL: DIQLTQSPSFLSASVGDRVTITCRASSSVNYIHWYQQKPGKAPKALIYATSNLASGVPSRFSGSGSGTEYTLTISSLQPEDFATYYCQQWNSNPLTFGQGTKLEIK
notes: humanized 35B4
EC50 [2]: 0.439 nM

B14: hu35B4.H1L3 (antibody, V domains shown)
VH: EVQLLESGGGLVQPGGSLRLSCAASGFTLSSYALSWVRQAPGKGLEWVSYISNLGGSTFYPDTVKGRFTISRDNSKNTLYLQMNSLRAEDTAVYYCAKHLYNYDAFASWGQGTLVTVSS
VL: DIQLTQSPSFLSASVGDRVTITCRASSSVNYIHWYQQKPGKSPKALIYATSNLASGVPSRFSGSGSGTEYTLTISSLQPEDFATYYCQQWNSNPLTFGQGTKLEIK
notes: humanized 35B4
EC50 [2]: 0.382 nM

B17: hu35B4.H1L1 (antibody, V domains shown)
VH: EVQLLESGGGLVQPGGSLRLSCAASGFTLSSYALSWVRQAPGKGLEWVSYISNLGGSTFYPDTVKGRFTISRDNSKNTLYLQMNSLRAEDTAVYYCAKHLYNYDAFASWGQGTLVTVSS
VL: DIQLTQSPSFLSASVGDRVTITCRASSSVNYIHWYQQKPGKAPKLLIYATSNLASGVPSRFSGSGSGTEFTLTISSLQPEDFATYYCQQWNSNPLTFGQGTKLEIK
notes: humanized 35B4
EC50 [2]: 0.525 nM

B21: hu35B4.H1L4 (antibody, V domains shown)
VH: EVQLLESGGGLVQPGGSLRLSCAASGFTLSSYALSWVRQAPGKGLEWVSYISNLGGSTFYPDTVKGRFTISRDNSKNTLYLQMNSLRAEDTAVYYCAKHLYNYDAFASWGQGTLVTVSS
VL: DIQLTQSPSFLSASVGDRVTMTCRASSSVNYIHWYQQKPGKSPKALIYATSNLASGVPSRFSGSGSGTEYTLTISSVQPEDFATYYCQQWNSNPLTFGQGTKLEIK
notes: humanized 35B4
EC50 [2]: 0.474 nM

The remaining lines, values ahead:

EC50 [2]: 0.319 nM
B13: hu35B4.H3L3 (antibody, V domains shown)
VH: EVQLLESGGGLVQPGGSLRLSCAASGFTLSSYALSWVRQAPGKGLEWVAYISNLGGSTFYPDTVKGRFTISRDNSKNTLYLQMNSLRAEDTAVYYCATHLYNYDAFASWGQGTLVTVSS
VL: DIQLTQSPSFLSASVGDRVTITCRASSSVNYIHWYQQKPGKSPKALIYATSNLASGVPSRFSGSGSGTEYTLTISSLQPEDFATYYCQQWNSNPLTFGQGTKLEIK
notes: humanized 35B4

EC50 [2]: 0.258 nM
B15: hu35B4.H3L1 (antibody, V domains shown)
VH: EVQLLESGGGLVQPGGSLRLSCAASGFTLSSYALSWVRQAPGKGLEWVAYISNLGGSTFYPDTVKGRFTISRDNSKNTLYLQMNSLRAEDTAVYYCATHLYNYDAFASWGQGTLVTVSS
VL: DIQLTQSPSFLSASVGDRVTITCRASSSVNYIHWYQQKPGKAPKLLIYATSNLASGVPSRFSGSGSGTEFTLTISSLQPEDFATYYCQQWNSNPLTFGQGTKLEIK
notes: humanized 35B4

EC50 [2]: 0.297 nM
B16: hu35B4.H3L2 (antibody, V domains shown)
VH: EVQLLESGGGLVQPGGSLRLSCAASGFTLSSYALSWVRQAPGKGLEWVAYISNLGGSTFYPDTVKGRFTISRDNSKNTLYLQMNSLRAEDTAVYYCATHLYNYDAFASWGQGTLVTVSS
VL: DIQLTQSPSFLSASVGDRVTITCRASSSVNYIHWYQQKPGKAPKALIYATSNLASGVPSRFSGSGSGTEYTLTISSLQPEDFATYYCQQWNSNPLTFGQGTKLEIK
notes: humanized 35B4

EC50 [2]: 0.413 nM
B18: hu35B4.H2L3 (antibody, V domains shown)
VH: EVQLLESGGGLVQPGGSLRLSCAASGFTLSSYALSWVRQAPGKGLEWVSYISNLGGSTFYPDTVKGRFTISRDNSKNTLYLQMNSLRAEDTAVYYCATHLYNYDAFASWGQGTLVTVSS
VL: DIQLTQSPSFLSASVGDRVTITCRASSSVNYIHWYQQKPGKSPKALIYATSNLASGVPSRFSGSGSGTEYTLTISSLQPEDFATYYCQQWNSNPLTFGQGTKLEIK
notes: humanized 35B4

EC50 [2]: 0.35 nM
B19: hu35B4.H3L4 (antibody, V domains shown)
VH: EVQLLESGGGLVQPGGSLRLSCAASGFTLSSYALSWVRQAPGKGLEWVAYISNLGGSTFYPDTVKGRFTISRDNSKNTLYLQMNSLRAEDTAVYYCATHLYNYDAFASWGQGTLVTVSS
VL: DIQLTQSPSFLSASVGDRVTMTCRASSSVNYIHWYQQKPGKSPKALIYATSNLASGVPSRFSGSGSGTEYTLTISSVQPEDFATYYCQQWNSNPLTFGQGTKLEIK
notes: humanized 35B4

EC50 [2]: 0.367 nM
B20: hu35B4.H2L4 (antibody, V domains shown)
VH: EVQLLESGGGLVQPGGSLRLSCAASGFTLSSYALSWVRQAPGKGLEWVSYISNLGGSTFYPDTVKGRFTISRDNSKNTLYLQMNSLRAEDTAVYYCATHLYNYDAFASWGQGTLVTVSS
VL: DIQLTQSPSFLSASVGDRVTMTCRASSSVNYIHWYQQKPGKSPKALIYATSNLASGVPSRFSGSGSGTEYTLTISSVQPEDFATYYCQQWNSNPLTFGQGTKLEIK
notes: humanized 35B4

EC50 [2]: 0.355 nM
B22: hu35B4.H2L1 (antibody, V domains shown)
VH: EVQLLESGGGLVQPGGSLRLSCAASGFTLSSYALSWVRQAPGKGLEWVSYISNLGGSTFYPDTVKGRFTISRDNSKNTLYLQMNSLRAEDTAVYYCATHLYNYDAFASWGQGTLVTVSS
VL: DIQLTQSPSFLSASVGDRVTITCRASSSVNYIHWYQQKPGKAPKLLIYATSNLASGVPSRFSGSGSGTEFTLTISSLQPEDFATYYCQQWNSNPLTFGQGTKLEIK
notes: humanized 35B4
